Measurements reported in patent US20100323906.

Test system: XhoI
Assay: cleavage_in_vitro
Conditions: 5'-dithiol on upper strand, tethered to 20 nm Au nanoparticle; rate constant at 3.5 nM enzyme (1.5e-3 s-1 at 350 pM); Mg2+ required, inhibited by 10 mM EDTA

## AAAGGATCCAAGCTTGAATTCCTCGAGAGATCTGTCGACGATATCGGTACCAAA (double strand) [54-bp ruler dsDNA]
  activity: 0.0058 s⁻¹
